From the supplement of paper PMC9170038

Test system: MS2 coat protein
Assay: apparent KD of MS2 coat protein; designed switch direction (-1 OFF switch, 1 ON switch): -1; higher = weaker reporter binding
Procedure, shortened: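 Each step of the titration lasted 0.8–1.5 h at the lowest concentration and 10–20 min at the highest. The protein, SNAP-549-labelled MS2 coat protein, went from 0.7 or 1.5 nM doubling to 3 µM over RNA switches transcribed on Illumina chips by stalled E. coli RNA polymerase. Normalised cluster fluorescence was curve-fitted, and the per-design median over clusters is given as apparent KD.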

[1] = input ligand: microRNA oligo, concentration not stated
[2] = Eterna round: R95, input ligand: microRNA oligo, concentration not stated
[3] = Eterna round: R95, input ligand: FMN 200 uM
[4] = Eterna round: R95, input ligand: none

Sequence	apparent KD of MS2 coat protein (input ligand: FMN 200 uM)	apparent KD of MS2 coat protein [1]	apparent KD of MS2 coat protein (input ligand: none)	apparent KD of MS2 coat protein [2]	apparent KD of MS2 coat protein [3]	apparent KD of MS2 coat protein [4]
AAUAAUCAUGUAGGAUAUGCGUGGCAAAGCUAUGCAGAAGGACAUGAGGAUCACCCAUGUUCUAGCGUCUGAAAACAGAUGCUA [Mat - Exclusion NG 1 - Mod of JL - D83] (Eterna round: R96, puzzle: Exclusion NG 1)	451 nM	29.5 nM	44.3 nM			
CGUGUGUGAGGAUAUGACAAUGGUAUCUUCGGAUACCAUUGUCAGAAGGUACAUGAGGAUCACCCAUGUAGAUC [Exclusion 4 - Mod Brourd Ex 4-3: 20 v.2] (puzzle: Exclusion 4)				35.6 nM		
AAGAAGAUCAGAGGAUAUGGAGCUGAAACGGCGCUAGAAGGCUGUCUAGUGUAACAUGAGGAUCACCCAUGUAGGGACCUCUAA [EX ng 1 4.3] (Eterna round: R96, puzzle: Exclusion NG 1)	874 nM	795 nM	884 nM			
UCUGGUCGAGGAUAUACAUGAGGAUCACCCAUGUGAUUAGCAGUCCUCGGACUGCAAUGUAGAAGGCGACCAGA [E3/2-A3] (Eterna round: R97, puzzle: Exclusion 3)	894 nM		393 nM			
ACAUGAGGAUCACCCAUGUGACCACGAUGGCUGAUGUAGAGAUAGGAUAUGUGUGAAUAUCUAUCACAGAAGGAUCUUGACUGG [Deportation 53 - Jieux - Exclusion NG 3] (Eterna round: R96, puzzle: Exclusion NG 3)	25.2 nM	22.4 nM	28.5 nM			
CAGGAUAGAGGAUAUACAUAGAUACAGAUUCGUGUAAUCCUACAUGAGGAUCACCCAUGUAGAAGGCUAUCCUG [Fiskers Ex 2 - 20] (puzzle: Exclusion 2)				13.2 nM		
CGGUACUGAGGAUAUACAUGAGGAUCACCCAUGUGUACCAGCUAGCGUACUGGCAUUAGUAGAAGGCGGUGCUG [JL-ex3-3.19 Brourd mod] (puzzle: Exclusion 3)				14.3 nM	15.7 nM	13.7 nM
GACCUGAGGCAAAGCUUUAGGCUUACAUGAGGAUCACCCAUGUAGGAUAUGGUAGGCAAAGCUUACCAGAAGGACAUGGAAAUU [Mat - Exclusion NG 3 - Mod of JL - D25] (Eterna round: R96, puzzle: Exclusion NG 3)	646 nM	98.7 nM	125 nM			
UGAUCUAGCGGAGGAUAUACAUGAGGAUCACCCAUGUAUAGGCCAUGUGGUGACACGUGGAACAUGUAGAAGGCCGCUAGAUCU [JL ENG2 3.82] (Eterna round: R96, puzzle: Exclusion NG 2)	287 nM	73.3 nM	77.6 nM			
ACGUUUUUUGAGGAUAUGCGAUAGUUUUAUAUCGUAGAAGGCGAUACAUGAGGAUCACCCAUGUUUAUGGGCAU [LRO-Ex6-20] (puzzle: Exclusion 6)				155 nM		
GAGUGCUGAGGAUAUACAUGAGGAUCACCCAUGUGCUUCAGCUAGGAGACUAGCAUUGGUAGAAGGCAGUACUC [Mod of lroppy - Jieux - Exclusion 3] (Eterna round: R97, puzzle: Exclusion 3)	76.8 nM		12.4 nM			
AUUAUAAAUGUAGGAUAUCUGCACGAUUAGUGCAGAGAAGGACAUGAGGAUCACCCAUGUAGAUCAAUAAUAAUUAAUUUAAUU [ENG1/5-B1] (Eterna round: R96, puzzle: Exclusion NG 1)	184 nM	34 nM	39.8 nM			
UUAUAAAGUGUGAGGAUAUGCUGGUCCAUAGAUCAGCAGAAGGCACAUGAGGAUCACCCAUGUAAUAUAUUUUU [Mat - Exclusion 4 - JL Mod - D43] (puzzle: Brourd's mod of Exclusion 4)				27.2 nM		
UGCAGACGAGGAUAUAGAUUUAGAUACAUGAGGAUCACCCAUGUAUAGAUGUAUUUAGAUUUAGAAGGCGUCUGCU [E5/13-A4] (Eterna round: R97, puzzle: Exclusion 5)	156 nM		176 nM			
AUAUGCAAGUAAAGAUCCUACAUGAGGAUCACCCAUGUGCUCGUCUUAUAAAGUACUAUCACGAAAGUGAUAGUACA [Mat - Sensor v3 - turn-off var 1 - Eli Mod - D84] (puzzle: Sensor v3, turn-off variant 1)				15.6 nM	215 nM	170 nM
ACAAGCUUUUGCUCGUCUUACAUGAGGAUCACCCAUGUCGGAUGAUCGCUUGCGUCCGGCGUCUGAGCCGUGACGGU [Sensor, turn off variant MOD of sellena. cleaned up dot.] (Eterna round: R97, puzzle: Sensor, turn-off variant 1)	15.3 nM		15 nM			
AAGAAAGAGUUAGGAUAUACAUGAGGAUCACCCAUGUGGUGGUAAAUCCGCUGGGUCGGUUCGAUGUAGAAGGAACAACCGCCG [Inisinlaon] (Eterna round: R96, puzzle: Exclusion NG 2)	281 nM	18.7 nM	68.3 nM			
CCAUCGUGUGUGAGGAUAUGCUGGUCCUUGGAUCAGCAGAAGGCACAUGAGGAUCACCCAUGUGAAUACGGUGG [JL bmx4 3.21] (puzzle: Brourd's mod of Exclusion 4)				17.8 nM		
CGAUAUAACGUAGGAUAUCUGAGAAAUAGAUGAAGAGAAGGACGACAUGAGGAUCACCCAUGUGAUCUAUCAAUAUUAUACAUG [Prohibition 96 - Jieux - Exclusion NG 1] (Eterna round: R96, puzzle: Exclusion NG 1)	722 nM	694 nM	604 nM			
ACAAGCUUUUAGAUUCUUAACAUGAGGAUCACCCAUGUGCUCGUCUUAUUGGCCGGCCGGCCGCCGGAAAAGCUUGU (Eterna round: R97, puzzle: Sensor, turn-off variant 1)	24.9 nM		25.3 nM			
AGUACUAUCACGAAAGUGAUAGUACAAAAAGCAAGUGAAACAUGAGGAUCACCCAUGUCCUCAUUUGCUCGUCUUAU [JL turnoff v2 99] (Eterna round: R96, puzzle: Sensor v2, turn-off variant 2)	12.2 nM	375 nM	14.4 nM			
AAUUAGUGAGGAUAUUUUAACAGUGGUAGUAGACAGUGGAUGAAGAAGGCACAUGAGGAUCACCCAUGUUAUAA [EX4 #55] (Eterna round: R97, puzzle: Exclusion 4)	164 nM		147 nM			
ACAUGAGGAUCACCCAUGUCUGGCUGGUCCGUCUCGGCUGUCGAGGAUAUGGCUCGGUGUCCGCGCUAGAAGGCGGGAGCCGGA [Aenatbe mod 77] (Eterna round: R96, puzzle: Exclusion NG 3)	685 nM	58.2 nM	78.8 nM			
GAGUGCUUAGGAUAUACAUGAGGAUCACCCAUGUGCUUCAGCUAGGAGACUAGCAUUGGUAGAAGGGAGUACUC [Mod of lroppy 5 - Jieux - Exclusion 3] (Eterna round: R97, puzzle: Exclusion 3)	24.2 nM		14.9 nM			
AGUACUGACACGUCGGUGUUAGUACAAUAAGCUUGUGAAACAUGAGGAUCACCCAUGUCCUCAUAAGCUCGUCUUAU [salish99_TOv2_r3_081] (puzzle: Sensor v3, turn-off variant 2)				659 nM	17 nM	15 nM
CGAAAGGUAGGAUAUACGAAGAAAAAGGGUAGAAGAAGAACACAUGAGGAUCACCCAUGUAGAAGGACCAAAGC [Mat - Exclusion 2 - Mod of my Tesla design - D16] (puzzle: Exclusion 2)				22.1 nM	65.1 nM	20.5 nM
UAUAUAUAGUAAGGAUAUGUAUUAAUGUUAUAAACAGAAGGUACUGACAUGAGGAUCACCCAUGUUUUAGUGUGGGCAUGUAGA [JMF's solution 78] (Eterna round: R96, puzzle: Exclusion NG 1)		73.8 nM				
AAGAGCAAGGCAGGAUAUCACAUGAGGAUCACCCAUGUAUCCGAAAGAACAACGCCCGCGUUGUGUGAGAAGGGUCUAUGCAGG [Eternabot solution 10] (Eterna round: R96, puzzle: Exclusion NG 2)	370 nM	61.6 nM	75.8 nM			
UUUUAGAGAGGAUAUAUAUUUUAAAACAUGAGGAUCACCCAUGUAAUUUUAUGGGAGUAAAUAGAAGGCUCAUUUA [JMFs Solution 3] (puzzle: Exclusion 5)				51 nM	48.7 nM	56.3 nM
